This is an account of results in paper PMC5454392, “Selective BET bromodomain inhibition as an antifungal therapeutic strategy” (Nature Communications, 2017).

Test [1] addresses T1, CaBdf1 BD1 (GST-tagged, wild-type) (Candida albicans (strain SC5314 / ATCC …, UniProt Q5A4W8)).
T1 chain: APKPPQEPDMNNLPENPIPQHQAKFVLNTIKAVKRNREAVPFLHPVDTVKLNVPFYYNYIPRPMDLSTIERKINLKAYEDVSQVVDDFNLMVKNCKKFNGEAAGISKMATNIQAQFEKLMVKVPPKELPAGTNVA
Put plainly: histone peptide array (Active Motif MODified), 1 uM GST-tagged bromodomain, anti-GST detection, normalized mean intensity.

Test [2] addresses T2, CaBdf1 BD2 (GST-tagged, wild-type) (Candida albicans (strain SC5314 / ATCC …, UniProt Q5A4W8)).
T2 chain: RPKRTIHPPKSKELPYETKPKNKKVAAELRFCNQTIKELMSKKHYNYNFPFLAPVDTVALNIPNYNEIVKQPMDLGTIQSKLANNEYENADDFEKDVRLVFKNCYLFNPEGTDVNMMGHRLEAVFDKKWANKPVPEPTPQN
The test is described as above.

Square brackets hold non-standard residues; d marks the D form. Ends that are not written are not given here. Arg(Me2a) = CN(C)C(=N)NCCC[C@H](N)C(=O)O; Lys(Me3) = C[N+](C)(C)CCCC[C@H](N)C(=O)O; Arg(Me2s) = CN=C(NC)NCCC[C@H](N)C(=O)O; pT = C[C@@H](OP(=O)(O)O)[C@H](N)C(=O)O; Lys(Me2) = CN(C)CCCC[C@H](N)C(=O)O; pS = N[C@@H](COP(=O)(O)O)C(=O)O; Lys(Me) = CNCCCC[C@H](N)C(=O)O; Me2a = not defined here; me2a = not defined here

Turning to ARTKQTARKSTGGKAPRKQ (A R T K Q T A Rme2s Kme3 S pT G G K A P R K Q), the binding score in test [1] amounted to 0.00399; in test [2], 0.0037.
For PRKQLATKAARK(Me)[pS]APATGG, the binding score in test [1] came to 0.0029; in test [2], 0.00333.
The like results for ARTKQTARKSTGGKAPRKQ (A Rme2a T Kme3 Q T A Rme2a Kac S T G G K A P R K Q) were, in that order, 0.0392 and 0.00999.
Regarding AR(me2a)TK(Ac)QTAR(me2a)K(Me)STGGKAPRKQ (reading uncertain), the binding score stood at 0.00761 in test [1] and 0.00888 in test [2].
Take AR(Me2a)TK(Me3)QTARK(Me2)STGGKAPRKQ (reading uncertain): the binding score in test [1] was 0.00145; in test [2], 0.00296.
Consider ARTKQTARKSTGGKAPRKQ (A Rme2s pT Kme2 Q T A R K S T G G K A P R K Q), for which the binding score in test [1] worked out at 0.00363; in test [2], 0.00333.
Regarding SGRGKGGKGLGKGGAKRHR (S G R G K G G Kac G L G Kac G G A Kac R H R), the figures for the binding score in test [1] and in test [2] were 0.201 and 0.16, respectively.
Regarding ARTKQTARKSTGGKAPRKQ (A Rme2s T Kme3 Q T A R K S T G G K A P R K Q), the figures for the binding score in test [1] and in test [2] were 0.00363 and 0, respectively.
With ARTKQTA[Arg(Me2s)]K(Ac)[pS]TGGKAPRKQ, the binding score in test [1] is 0.00363; in test [2], 0.00296.
ARTKQTARKSTGGKAPRKQ (A Rme2a T Kac Q T A Rme2a K S T G G K A P R K Q): the results for the binding score in test [1] and in test [2] were 0.00399 and 0.00592, respectively.
R[Arg(Me2s)]K[Lys(Me)]K(Ac)R[Arg(Me2a)][Lys(Me2)]K[Lys(Me3)]R[Lys(Me)][Arg(Me2s)]KK(Ac)RK [background 02]: the binding score came to 0.00906 in test [1] and 0.00444 in test [2].
Regarding ARTKQTARKSTGGKAPRKQ (A Rme2a T Kme2 Q T A Rme2s Kme1 S T G G K A P R K Q), the binding score in test [1] was found to be 0.00399; in test [2], 0.0037.
As for PRKQLATKAAR(Me2s)K(Me)SAPATGG, the binding score was found to be 0.00435 in test [1] and 0.00296 in test [2].
As to SGRGKQGGKARAK(Ac)AKSRSS, the figures for the binding score in test [1] and in test [2] were 0.0943 and 0.0141, respectively.
The like results for SGRGK(Ac)QGGK(Ac)ARAKAKSRSS were, in that order, 0.0283 and 0.0133.
For ARTKQTARKSTGGKAPRKQ (A Rme2a T Kme3 Q T A Rme2s Kac S T G G K A P R K Q), the figures for the binding score in test [1] and in test [2] were 0.0337 and 0.0037, respectively.
Turning to ARTKQTARKSTGGKAPRKQ (A R T Kac Q T A Rme2a Kme3 S T G G K A P R K Q), the binding score in test [1] was determined as 0.0087; in test [2], 0.00592.
Turning to AR(Me2a)[pT]K(Me)QTARKSTGGKAPRKQ (reading uncertain), the binding score in test [1] was 0.00471; in test [2], 0.00037.
As for ARTKQTARKSTGGKAPRKQ (A R T K Q T A Rme2s Kac S pT G G K A P R K Q), the binding score in test [1] came out at 0.00363; in test [2], 0.00407.
Take A[Arg(Me2a)]TK(Ac)QTARKSTGGKAPRKQ: the results for the binding score in test [1] and in test [2] were 0.00363 and 0.00148, respectively.
With RKSAPATGGVKKPHRYRPG (R K S A P A T G G V Kme3 K P H R Y R P G) [H3 26-45], the binding score worked out at 0.00761 in test [1] and 0.00777 in test [2].
As for ARTKQTARKSTGGKAPRKQ (A R T Kme2 Q T A Rme2a Kme1 S T G G K A P R K Q), the binding score in test [1] is 0.0363; in test [2], 0.00666.
The like results for A[Arg(Me2a)]T[Lys(Me2)]QTA[Arg(Me2s)][Lys(Me2)]STGGKAPRKQ were, in that order, 0.0029 and 0.00666.
For ARTKQTARKSTGGKAPRKQ (A Rme2a T Kme2 Q T A Rme2s Kac S T G G K A P R K Q), the binding score stood at 0.0435 in test [1] and 0.00333 in test [2].
As to AR(Me2s)TK(Me3)QTAR(Me2a)K(Ac)STGGKAPRKQ (reading uncertain), the binding score turned out to be 0.0406 in test [1] and 0.0037 in test [2].
Consider ARTKQTARKSTGGKAPRKQ (A Rme2a T Kac Q T A Rme2s Kme1 S T G G K A P R K Q), for which the figures for the binding score in test [1] and in test [2] were 0.00471 and 0.00296, respectively.
For the molecule A[Arg(Me2a)]TKQTARKSTGGKAPRKQ, the binding score in test [1] turned out to be 0.000363; in test [2], 0.00296.
ARTKQTARKSTGGKAPRKQ (A R pT Kme2 Q T A R K S T G G K A P R K Q): the binding score in test [1] came out at 0.00326; in test [2], 0.0037.
Consider ARTKQTA[Arg(Me2a)]K(Me)[pS]TGGKAPRKQ, for which the binding score in test [1] worked out at 0.00326; in test [2], 0.00407.
Consider ARTKQTARKSTGGKAPRKQ (A Rme2a T Kme1 Q T A Rme2a Kac S T G G K A P R K Q), for which the figures for the binding score in test [1] and in test [2] were 0.0254 and 0.00333, respectively.
Regarding [pS]GRGK(Ac)QGGKARAKAKSRSS, the binding score was determined as 0.0156 in test [1] and 0.0215 in test [2].
ARTKQTARKSTGGKAPRKQ (A R T K Q T A R K S pT G G K A P R K Q): the binding score was determined as 0.00326 in test [1] and 0.00037 in test [2].
Take PRKQLATKAAR(Me2s)K(Me3)[pS]APATGG: the figures for the binding score in test [1] and in test [2] were 0.00109 and 0.00629, respectively.
The like results for PRKQLATKAAR(Me2s)K(Me)[pS]APATGG were, in that order, 0.00254 and 0.00259.
For the molecule SGRGKGGKGLGKGGAKRHR (S G R G K G G K G L G K G G A Kac R H R), the binding score in test [1] was determined as 0.0149; in test [2] it was 0.00296.
In the case of PRKQLATKAAR(Me2s)K(Ac)SAPATGG, the binding score in test [1] came to 0.0123; in test [2], 0.00814.
As to [pS]GRGK(Ac)QGGK(Ac)ARAK(Ac)AKSRSS, the results for the binding score in test [1] and in test [2] were 0.0515 and 0.00888, respectively.
As to SGRGKQGGKARAKAKSRSS (not fully specified), the binding score turned out to be 0.0087 in test [1] and 0.00259 in test [2].

B1: H4 1-19 (peptide)
chain: SGRGKGGKGLGKGGAKRHR
modifications: not fully specified; histone peptide post-translational modifications (acetyl, methyl, phospho, citrulline) listed in columns 4-7 and embedded in the sequence text; N-terminus free or acetylated in column 8
As to B1, the binding score in test [1] came to 0.00725; in test [2], 0.00999.
In the case of PRKQLATKAARKSAPATGG (not fully specified), the binding score in test [1] was 0.00798; in test [2] it was 0.00111.
Regarding ARTKQTA[Arg(Me2a)]K(Ac)[pS]TGGKAPRKQ, the binding score in test [1] worked out at 0.00399; in test [2] it was 0.00407.
With ARTKQTARKSTGGKAPRKQ (A Rme2s T Kac Q T A Rme2s Kac S T G G K A P R K Q), the binding score in test [1] came out at 0.041; in test [2], 0.00629.
